B1: Speckle-type POZ protein (Homo sapiens), O43791 (parent)
chain: MSRVPSPPPPAEMSSGPVAESWCYTQIKVVKFSYMWTINNFSFCREEMGEVIKSSTFSSGANDKLKWCLRVNPKGLDEESKDYLSLYLLLVSCPKSEVRAKFKFSILNAKGEETKAMESQRAYRFVQGKDWGFKKFIRRDFLLDEANGLLPDDKLTLFCEVSVVQDSVNISGQNTMNMVKVPECRLADELGGLWENSRFTDCCLCVAGQEFQAHKAILAARSPVFSAMFEHEMEESKKNRVEINDVEPEVFKEMMCFIYTGKAPNLDKMADDLLAAADKYALERLKVMCEDALCSNLSVENAAEILILADLHSADQLKTQAVDFINYHASDVLETSGWKSMVVSHPHLVAEAYRSLASAQCPFLGPPRKRLKQS
partner: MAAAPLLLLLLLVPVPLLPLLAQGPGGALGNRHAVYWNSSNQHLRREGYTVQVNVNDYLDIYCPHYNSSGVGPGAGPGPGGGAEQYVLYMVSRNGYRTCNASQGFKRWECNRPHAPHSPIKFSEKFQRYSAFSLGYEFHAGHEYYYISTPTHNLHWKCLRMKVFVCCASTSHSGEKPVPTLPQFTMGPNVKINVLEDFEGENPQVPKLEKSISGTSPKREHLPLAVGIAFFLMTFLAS
B2: Mothers against decapentaplegic homolog 4 (Homo sapiens), Q13485 (parent)
chain: MDNMSITNTPTSNDACLSIVHSLMCHRQGGESETFAKRAIESLVKKLKEKKDELDSLITAITTNGAHPSKCVTIQRTLDGRLQVAGRKGFPHVIYARLWRWPDLHKNELKHVKYCQYAFDLKCDSVCVNPYHYERVVSPGIDLSGLTLQSNAPSSMMVKDEYVHDFEGQPSLSTEGHSIQTIQHPPSNRASTETYSTPALLAPSESNATSTANFPNIPVASTSQPASILGGSHSEGLLQIASGPQPGQQQNGFTGQPATYHHNSTTTWTGSRTAPYTPNLPHHQNGHLQHHPPMPPHPGHYWPVHNELAFQPPISNHPAPEYWCSIAYFEMDVQVGETFKVPSSCPIVTVDGYVDPSGGDRFCLGQLSNVHRTEAIERARLHIGKGVQLECKGEGDVWVRCLSDHAVFVQSYYLDREAGRAPGDAVHKIYPSAYIKVFDLRQCHRQMQQQAATAQAAAAAQAAAVAGNIPGPGSVGGIAPAISLSAAAGIGVDDLRRLCILRMSFVKGWGPDYPRQSIKETPCWIEIHLHRALQLLDEVLHTMPIADPQPLD
partner: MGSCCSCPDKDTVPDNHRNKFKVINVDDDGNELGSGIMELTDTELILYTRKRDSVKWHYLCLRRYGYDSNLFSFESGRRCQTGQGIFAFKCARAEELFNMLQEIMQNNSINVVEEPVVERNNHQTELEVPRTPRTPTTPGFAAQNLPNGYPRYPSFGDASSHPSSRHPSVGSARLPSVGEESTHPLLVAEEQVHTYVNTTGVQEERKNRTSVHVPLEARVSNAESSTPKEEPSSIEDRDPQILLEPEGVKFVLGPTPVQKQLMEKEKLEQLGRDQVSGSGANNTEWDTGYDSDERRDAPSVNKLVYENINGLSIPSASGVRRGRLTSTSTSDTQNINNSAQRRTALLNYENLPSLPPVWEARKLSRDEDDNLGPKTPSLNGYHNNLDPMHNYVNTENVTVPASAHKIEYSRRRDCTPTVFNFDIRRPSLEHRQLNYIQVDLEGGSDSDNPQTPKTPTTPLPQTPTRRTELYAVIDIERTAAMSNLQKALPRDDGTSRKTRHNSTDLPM
B3: Speckle-type POZ protein (Homo sapiens), O43791 (parent)
chain: B1 chain
partner: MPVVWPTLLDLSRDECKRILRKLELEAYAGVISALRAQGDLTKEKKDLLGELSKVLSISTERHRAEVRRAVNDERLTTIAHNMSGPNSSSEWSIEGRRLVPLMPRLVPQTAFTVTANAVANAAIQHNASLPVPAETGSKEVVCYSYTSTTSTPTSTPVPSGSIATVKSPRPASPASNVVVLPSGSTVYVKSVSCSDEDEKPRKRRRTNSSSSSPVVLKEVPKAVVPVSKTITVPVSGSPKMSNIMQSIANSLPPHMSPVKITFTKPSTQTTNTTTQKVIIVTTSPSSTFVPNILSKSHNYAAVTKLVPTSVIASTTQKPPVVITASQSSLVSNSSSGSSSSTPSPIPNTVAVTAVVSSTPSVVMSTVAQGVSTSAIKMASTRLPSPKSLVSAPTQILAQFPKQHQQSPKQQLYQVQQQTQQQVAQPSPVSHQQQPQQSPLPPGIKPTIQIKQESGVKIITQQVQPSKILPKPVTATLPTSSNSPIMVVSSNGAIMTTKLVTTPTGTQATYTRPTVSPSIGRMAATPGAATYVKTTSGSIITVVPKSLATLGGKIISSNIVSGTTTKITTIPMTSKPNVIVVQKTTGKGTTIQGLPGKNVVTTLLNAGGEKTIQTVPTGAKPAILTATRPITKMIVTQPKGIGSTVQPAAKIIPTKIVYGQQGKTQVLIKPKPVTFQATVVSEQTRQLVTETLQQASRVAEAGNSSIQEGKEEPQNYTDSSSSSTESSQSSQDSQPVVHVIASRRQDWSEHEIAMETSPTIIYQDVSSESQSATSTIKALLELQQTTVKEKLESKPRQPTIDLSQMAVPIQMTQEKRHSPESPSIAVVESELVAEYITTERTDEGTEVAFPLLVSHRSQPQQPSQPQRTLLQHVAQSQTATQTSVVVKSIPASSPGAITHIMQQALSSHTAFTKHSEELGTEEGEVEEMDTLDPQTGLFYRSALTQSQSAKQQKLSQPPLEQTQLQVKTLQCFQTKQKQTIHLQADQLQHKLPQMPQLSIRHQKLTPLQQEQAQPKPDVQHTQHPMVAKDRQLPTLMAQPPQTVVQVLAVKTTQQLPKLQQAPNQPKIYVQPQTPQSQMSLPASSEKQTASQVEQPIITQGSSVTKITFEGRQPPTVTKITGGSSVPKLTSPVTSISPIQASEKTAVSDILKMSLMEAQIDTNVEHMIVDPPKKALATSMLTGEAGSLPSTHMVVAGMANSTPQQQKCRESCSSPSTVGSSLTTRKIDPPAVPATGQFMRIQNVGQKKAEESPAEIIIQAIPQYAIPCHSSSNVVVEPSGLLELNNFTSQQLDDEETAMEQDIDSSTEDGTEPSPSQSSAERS
B4: Speckle-type POZ protein (Homo sapiens), O43791 (parent)
chain: B1 chain
partner: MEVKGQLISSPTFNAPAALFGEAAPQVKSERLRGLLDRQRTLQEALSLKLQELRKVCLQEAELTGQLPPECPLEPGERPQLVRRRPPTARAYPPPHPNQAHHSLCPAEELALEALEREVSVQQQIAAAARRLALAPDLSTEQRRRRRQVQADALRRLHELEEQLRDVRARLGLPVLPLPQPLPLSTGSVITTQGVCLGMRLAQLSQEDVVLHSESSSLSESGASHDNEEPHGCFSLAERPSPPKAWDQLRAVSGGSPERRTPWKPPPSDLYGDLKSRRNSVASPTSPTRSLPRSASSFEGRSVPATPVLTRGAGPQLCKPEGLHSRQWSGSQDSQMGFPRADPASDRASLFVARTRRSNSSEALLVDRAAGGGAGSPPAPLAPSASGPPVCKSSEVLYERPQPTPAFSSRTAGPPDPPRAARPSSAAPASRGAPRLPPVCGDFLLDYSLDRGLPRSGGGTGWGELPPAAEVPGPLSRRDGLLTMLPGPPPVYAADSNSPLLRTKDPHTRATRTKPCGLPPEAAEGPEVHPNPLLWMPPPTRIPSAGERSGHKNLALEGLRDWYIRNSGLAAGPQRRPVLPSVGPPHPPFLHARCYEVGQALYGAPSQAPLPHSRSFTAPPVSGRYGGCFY

Variants of: B1
Settings: with efna3_human EFNA3, P52797

| Variant | effect of a mutation on the interaction |
| --- | --- |
| Y87C | with no effect |

Variants of: B1
Settings: with efna3_human EFNA3, P52797
Remark: another data set of the same source

| Variant | effect of a mutation on the interaction |
| --- | --- |
| F133L | with no effect |

Variants of: B1
Settings: with efna3_human EFNA3, P52797
Remark: another data set of the same source

| Variant | effect of a mutation on the interaction |
| --- | --- |
| F133V | with no effect |

Variants of: B1
Settings: with efna3_human EFNA3, P52797
Remark: another data set of the same source

| Variant | effect of a mutation on the interaction |
| --- | --- |
| F102C | with no effect |

Variants of: B2
Settings: with frs2_human FRS2, Q8WU20

| Variant | effect of a mutation on the interaction |
| --- | --- |
| R361C | with no effect |

Variants of: B2
Settings: with frs2_human FRS2, Q8WU20
Remark: another data set of the same source

| Variant | effect of a mutation on the interaction |
| --- | --- |
| R361H | with no effect |

Variants of: B3
Settings: with emsy_human EMSY

| Variant | effect of a mutation on the interaction |
| --- | --- |
| F102C | with no effect |

Variants of: B3
Settings: with emsy_human EMSY
Remark: another data set of the same source

| Variant | effect of a mutation on the interaction |
| --- | --- |
| F133L | with no effect |

Variants of: B4
Settings: with cc120_human CCDC120, Q96HB5

| Variant | effect of a mutation on the interaction |
| --- | --- |
| F133L | with no effect |

Variants of: B4
Settings: with cc120_human CCDC120, Q96HB5
Remark: another data set of the same source

| Variant | effect of a mutation on the interaction |
| --- | --- |
| F133V | with no effect |

Variants of: B4
Settings: with cc120_human CCDC120, Q96HB5
Remark: another data set of the same source

| Variant | effect of a mutation on the interaction |
| --- | --- |
| F102C | with no effect |

From IntAct's records for PubMed 35512704
